According to patent US20100260668A1 (published 2010):

B1: DVD661 (bispecific antibody, human IgG1, kappa)
heavy: not shown
light: DIQMTQSPSSLSASVGDRVTITCKASENVVSYVSWYQQKPGKAPKLLIYGASNRNTGVPSRFSGSGSGTDFTLTISSLQPEDFATYYCGQSYNYPYTFGQGTKLEIKRTVAAPDIQMTQSPSSLSASVGDRVTITCRASQDVSTAVAWYQQKPGKAPKLLIYSASFLYSGVPSRFSGSGSGTDFTLTISSLQPEDFATYYCQQSYTTPPTFGQGTKVEIKRTVAAPSVFIFPPSDEQLKSGTASVVCLLNNFYPREAKVQWKVDNALQSGNSQESVTEQDSKDSTYSLSSTLTLSKADYEKHKVYACEVTHQGLSSPVTKSFNRGEC
notes: DVD-Ig; HC linker short, LC linker short; vectors V1/V2
B2: DVD673 (bispecific antibody, human IgG1, kappa)
heavy: not shown
light: DIQMTQSPSSLSASVGDRVTITCKASENVVSYVSWYQQKPGKAPKLLIYGASNRNTGVPSRFSGSGSGTDFTLTISSLQPEDFATYYCGQSYNYPYTFGQGTKLEIKRTVAAPDIQMTQSPSSLSASVGDRVTITCRASQDVSTAVAWYQQKPGKAPKLLIYSASFLYSGVPSRFSGSGSGTDFTLTISSLQPEDFATYYCQQSYTTPPTFGQGTKVEIKRTVAAPSVFIFPPSDEQLKSGTASVVCLLNNFYPREAKVQWKVDNALQSGNSQESVTEQDSKDSTYSLSSTLTLSKADYEKHKVYACEVTHQGLSSPVTKSFNRGEC
notes: DVD-Ig; HC linker long, LC linker short; vectors V1/V2
B3: DVD680 (bispecific antibody, human IgG1, kappa)
heavy: not shown
light: DIQMTQSPSSLSASVGDRVTITCRASQDVSTAVAWYQQKPGKAPKLLIYSASFLYSGVPSRFSGSGSGTDFTLTISSLQPEDFATYYCQQSYTTPPTFGQGTKVEIKRTVAAPSVFIFPPDIQMTQSPSSLSASVGDRVTITCKASENVVSYVSWYQQKPGKAPKLLIYGASNRNTGVPSRFSGSGSGTDFTLTISSLQPEDFATYYCGQSYNYPYTFGQGTKLEIKRTVAAPSVFIFPPSDEQLKSGTASVVCLLNNFYPREAKVQWKVDNALQSGNSQESVTEQDSKDSTYSLSSTLTLSKADYEKHKVYACEVTHQGLSSPVTKSFNRGEC
notes: DVD-Ig; HC linker short, LC linker long; vectors V1/V2
B4: DVD712 (bispecific antibody, human IgG1, kappa)
heavy: not shown
light: DIQMTQSPSSLSASVGDRVTITCRASQVIRRSLAWYQQKPGKAPKLLIYAASNLASGVPSRFSGSGSGTDFTLTISSLQPEDFATYYCQQSNTSPLTFGQGTKVEIKRTVAAPDIQMTQSPSSVSASVGDRVTITCRASQGISSWLAWYQQKPGKAPNLLIYEASSLQSGVPSRFGGSGSGTDFTLTISSLQPEDFATYYCQQANGFPWTFGQGTKVEIKRTVAAPSVFIFPPSDEQLKSGTASVVCLLNNFYPREAKVQWKVDNALQSGNSQESVTEQDSKDSTYSLSSTLTLSKADYEKHKVYACEVTHQGLSSPVTKSFNRGEC
notes: DVD-Ig; N-term VD AB071 (VEGF), C-term VD AB012 (HGF); HC linker short, LC linker short; vectors V1/V2
B5: DVD663 (bispecific antibody, human IgG1, kappa)
heavy: not shown
light: DIQMTQSPSSLSASVGDRVTITCKASENVVSYVSWYQQKPGKAPKLLIYGASNRNTGVPSRFSGSGSGTDFTLTISSLQPEDFATYYCGQSYNYPYTFGQGTKLEIKRTVAAPDIQMTQSPSSLSASVGDRVTITCRASQVIRRSLAWYQQKPGKAPKLLIYAASNLASGVPSRFSGSGSGTDFTLTISSLQPEDFATYYCQQSNTSPLTFGQGTKVEIKRTVAAPSVFIFPPSDEQLKSGTASVVCLLNNFYPREAKVQWKVDNALQSGNSQESVTEQDSKDSTYSLSSTLTLSKADYEKHKVYACEVTHQGLSSPVTKSFNRGEC
notes: DVD-Ig; N-term VD AB079 (HGF), C-term VD AB071 (VEGF); HC linker short, LC linker short; vectors V1/V2
B6: DVD651 (bispecific antibody, human IgG1, kappa)
heavy: not shown
light: DIQMTQSPSSVSASVGDRVTITCRASQGISSWLAWYQQKPGKAPNLLIYEASSLQSGVPSRFGGSGSGTDFTLTISSLQPEDFATYYCQQANGFPWTFGQGTKVEIKRTVAAPDIQMTQSPSSLSASVGDRVTITCRASQVIRRSLAWYQQKPGKAPKLLIYAASNLASGVPSRFSGSGSGTDFTLTISSLQPEDFATYYCQQSNTSPLTFGQGTKVEIKRTVAAPSVFIFPPSDEQLKSGTASVVCLLNNFYPREAKVQWKVDNALQSGNSQESVTEQDSKDSTYSLSSTLTLSKADYEKHKVYACEVTHQGLSSPVTKSFNRGEC
notes: DVD-Ig; N-term VD AB012 (HGF), C-term VD AB071 (VEGF); HC linker long, LC linker short; vectors V1/V2
B7: DVD649 (bispecific antibody, human IgG1, kappa)
heavy: not shown
light: DIQMTQSPSSVSASVGDRVTITCRASQGISSWLAWYQQKPGKAPNLLIYEASSLQSGVPSRFGGSGSGTDFTLTISSLQPEDFATYYCQQANGFPWTFGQGTKVEIKRTVAAPDIQMTQSPSSLSASVGDRVTITCRASQDVSTAVAWYQQKPGKAPKLLIYSASFLYSGVPSRFSGSGSGTDFTLTISSLQPEDFATYYCQQSYTTPPTFGQGTKVEIKRTVAAPSVFIFPPSDEQLKSGTASVVCLLNNFYPREAKVQWKVDNALQSGNSQESVTEQDSKDSTYSLSSTLTLSKADYEKHKVYACEVTHQGLSSPVTKSFNRGEC
notes: as for B2
B8: DVD682 (bispecific antibody, human IgG1, kappa)
heavy: not shown
light: DIQMTQSPSSLSASVGDRVTITCRASQVIRRSLAWYQQKPGKAPKLLIYAASNLASGVPSRFSGSGSGTDFTLTISSLQPEDFATYYCQQSNTSPLTFGQGTKVEIKRTVAAPSVFIFPPDIQMTQSPSSLSASVGDRVTITCKASENVVSYVSWYQQKPGKAPKLLIYGASNRNTGVPSRFSGSGSGTDFTLTISSLQPEDFATYYCGQSYNYPYTFGQGTKLEIKRTVAAPSVFIFPPSDEQLKSGTASVVCLLNNFYPREAKVQWKVDNALQSGNSQESVTEQDSKDSTYSLSSTLTLSKADYEKHKVYACEVTHQGLSSPVTKSFNRGEC
notes: DVD-Ig; N-term VD AB071 (VEGF), C-term VD AB079 (HGF); HC linker short, LC linker long; vectors V1/V2
B9: DVD710 (bispecific antibody, human IgG1, kappa)
heavy: not shown
light: DIQMTQSPSSLSASVGDRVTITCRASQDVSTAVAWYQQKPGKAPKLLIYSASFLYSGVPSRFSGSGSGTDFTLTISSLQPEDFATYYCQQSYTTPPTFGQGTKVEIKRTVAAPDIQMTQSPSSVSASVGDRVTITCRASQGISSWLAWYQQKPGKAPNLLIYEASSLQSGVPSRFGGSGSGTDFTLTISSLQPEDFATYYCQQANGFPWTFGQGTKVEIKRTVAAPSVFIFPPSDEQLKSGTASVVCLLNNFYPREAKVQWKVDNALQSGNSQESVTEQDSKDSTYSLSSTLTLSKADYEKHKVYACEVTHQGLSSPVTKSFNRGEC
notes: as for B1
B10: DVD669 (bispecific antibody, human IgG1, kappa)
heavy: not shown
light: DIQMTQSPSSLSASVGDRVTITCKASENVVSYVSWYQQKPGKAPKLLIYGASNRNTGVPSRFSGSGSGTDFTLTISSLQPEDFATYYCGQSYNYPYTFGQGTKLEIKRTVAAPSVFIFPPDIQMTQSPSSLSASVGDRVTITCRASQVIRRSLAWYQQKPGKAPKLLIYAASNLASGVPSRFSGSGSGTDFTLTISSLQPEDFATYYCQQSNTSPLTFGQGTKVEIKRTVAAPSVFIFPPSDEQLKSGTASVVCLLNNFYPREAKVQWKVDNALQSGNSQESVTEQDSKDSTYSLSSTLTLSKADYEKHKVYACEVTHQGLSSPVTKSFNRGEC
notes: DVD-Ig; N-term VD AB079 (HGF), C-term VD AB071 (VEGF); HC linker long, LC linker long; vectors V1/V2
B11: DVD645 (bispecific antibody, human IgG1, kappa)
heavy: not shown
light: DIQMTQSPSSVSASVGDRVTITCRASQGISSWLAWYQQKPGKAPNLLIYEASSLQSGVPSRFGGSGSGTDFTLTISSLQPEDFATYYCQQANGFPWTFGQGTKVEIKRTVAAPSVFIFPPDIQMTQSPSSLSASVGDRVTITCRASQVIRRSLAWYQQKPGKAPKLLIYAASNLASGVPSRFSGSGSGTDFTLTISSLQPEDFATYYCQQSNTSPLTFGQGTKVEIKRTVAAPSVFIFPPSDEQLKSGTASVVCLLNNFYPREAKVQWKVDNALQSGNSQESVTEQDSKDSTYSLSSTLTLSKADYEKHKVYACEVTHQGLSSPVTKSFNRGEC
notes: DVD-Ig; N-term VD AB012 (HGF), C-term VD AB071 (VEGF); HC linker long, LC linker long; vectors V1/V2
B12: DVD657 (bispecific antibody, human IgG1, kappa)
heavy: not shown
light: DIQMTQSPSSVSASVGDRVTITCRASQGISSWLAWYQQKPGKAPNLLIYEASSLQSGVPSRFGGSGSGTDFTLTISSLQPEDFATYYCQQANGFPWTFGQGTKVEIKRTVAAPSVFIFPPDIQMTQSPSSLSASVGDRVTITCRASQVIRRSLAWYQQKPGKAPKLLIYAASNLASGVPSRFSGSGSGTDFTLTISSLQPEDFATYYCQQSNTSPLTFGQGTKVEIKRTVAAPSVFIFPPSDEQLKSGTASVVCLLNNFYPREAKVQWKVDNALQSGNSQESVTEQDSKDSTYSLSSTLTLSKADYEKHKVYACEVTHQGLSSPVTKSFNRGEC
notes: DVD-Ig; N-term VD AB012 (HGF), C-term VD AB071 (VEGF); HC linker short, LC linker long; vectors V1/V2
B13: DVD667 (bispecific antibody, human IgG1, kappa)
heavy: not shown
light: DIQMTQSPSSLSASVGDRVTITCKASENVVSYVSWYQQKPGKAPKLLIYGASNRNTGVPSRFSGSGSGTDFTLTISSLQPEDFATYYCGQSYNYPYTFGQGTKLEIKRTVAAPSVFIFPPDIQMTQSPSSLSASVGDRVTITCRASQDVSTAVAWYQQKPGKAPKLLIYSASFLYSGVPSRFSGSGSGTDFTLTISSLQPEDFATYYCQQSYTTPPTFGQGTKVEIKRTVAAPSVFIFPPSDEQLKSGTASVVCLLNNFYPREAKVQWKVDNALQSGNSQESVTEQDSKDSTYSLSSTLTLSKADYEKHKVYACEVTHQGLSSPVTKSFNRGEC
notes: DVD-Ig; HC linker long, LC linker long; vectors V1/V2
B14: DVD643 (bispecific antibody, human IgG1, kappa)
heavy: not shown
light: DIQMTQSPSSVSASVGDRVTITCRASQGISSWLAWYQQKPGKAPNLLIYEASSLQSGVPSRFGGSGSGTDFTLTISSLQPEDFATYYCQQANGFPWTFGQGTKVEIKRTVAAPSVFIFPPDIQMTQSPSSLSASVGDRVTITCRASQDVSTAVAWYQQKPGKAPKLLIYSASFLYSGVPSRFSGSGSGTDFTLTISSLQPEDFATYYCQQSYTTPPTFGQGTKVEIKRTVAAPSVFIFPPSDEQLKSGTASVVCLLNNFYPREAKVQWKVDNALQSGNSQESVTEQDSKDSTYSLSSTLTLSKADYEKHKVYACEVTHQGLSSPVTKSFNRGEC
notes: as for B13
B15: DVD655 (bispecific antibody, human IgG1, kappa)
heavy: not shown
light: DIQMTQSPSSVSASVGDRVTITCRASQGISSWLAWYQQKPGKAPNLLIYEASSLQSGVPSRFGGSGSGTDFTLTISSLQPEDFATYYCQQANGFPWTFGQGTKVEIKRTVAAPSVFIFPPDIQMTQSPSSLSASVGDRVTITCRASQDVSTAVAWYQQKPGKAPKLLIYSASFLYSGVPSRFSGSGSGTDFTLTISSLQPEDFATYYCQQSYTTPPTFGQGTKVEIKRTVAAPSVFIFPPSDEQLKSGTASVVCLLNNFYPREAKVQWKVDNALQSGNSQESVTEQDSKDSTYSLSSTLTLSKADYEKHKVYACEVTHQGLSSPVTKSFNRGEC
notes: as for B3

Columns and labels:
HGF-His tag [1] = target: T1, HGF-His tag (UniProt P14210 32-728); assay: direct bind ELISA (N-term VD);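 also: ELISA screen of antibodies for binding to plate-immobilized target antigen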
T1 construct: Bought antigen coated on the ELISA plate; not shown: His tag
T1 sequence (P14210 32-728 limits assumed): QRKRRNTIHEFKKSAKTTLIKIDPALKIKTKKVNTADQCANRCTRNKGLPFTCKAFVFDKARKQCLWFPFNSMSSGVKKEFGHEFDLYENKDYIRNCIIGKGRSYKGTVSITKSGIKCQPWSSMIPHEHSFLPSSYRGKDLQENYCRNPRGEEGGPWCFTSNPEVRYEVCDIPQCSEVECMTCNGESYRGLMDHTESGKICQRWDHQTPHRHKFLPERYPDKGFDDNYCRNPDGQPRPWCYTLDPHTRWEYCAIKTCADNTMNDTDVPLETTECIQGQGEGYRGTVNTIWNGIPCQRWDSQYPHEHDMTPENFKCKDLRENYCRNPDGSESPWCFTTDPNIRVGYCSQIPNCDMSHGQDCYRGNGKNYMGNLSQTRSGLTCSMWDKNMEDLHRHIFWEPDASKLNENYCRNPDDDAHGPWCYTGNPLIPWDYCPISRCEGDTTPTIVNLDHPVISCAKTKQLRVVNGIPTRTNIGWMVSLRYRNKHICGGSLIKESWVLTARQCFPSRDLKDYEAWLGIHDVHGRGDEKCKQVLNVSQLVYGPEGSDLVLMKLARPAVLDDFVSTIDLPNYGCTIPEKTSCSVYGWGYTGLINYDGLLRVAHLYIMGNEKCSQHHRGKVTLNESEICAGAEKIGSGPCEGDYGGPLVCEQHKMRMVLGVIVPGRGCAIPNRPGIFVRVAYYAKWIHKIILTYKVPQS

VEGF 1-165 aa [2] = target: T2, VEGF 1-165 aa (UniProt P15692 27-191); assay: direct bind ELISA (C-term VD)
T2 construct: Bought antigen coated on the ELISA plate
T2 sequence (P15692 other isoform, or with tags, fused parts or gaps limits assumed): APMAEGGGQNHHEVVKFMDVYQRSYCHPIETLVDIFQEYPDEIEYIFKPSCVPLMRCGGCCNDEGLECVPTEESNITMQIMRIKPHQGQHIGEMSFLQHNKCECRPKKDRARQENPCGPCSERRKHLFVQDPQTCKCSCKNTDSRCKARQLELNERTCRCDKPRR
Description: (§1) Enzyme Linked Immunosorbent Assays to screen for antibodies that bind a desired target antigen were performed as follows. […] Plates were washed four times with PBS containing 0.02% Tween 20. Plates were blocked by the addition of 300 μL/well blocking solution (non-fat dry milk powder, various retail suppliers, diluted to 2% in PBS) for ½ hour at room temperature. Plates were washed four times after blocking with PBS containing 0.02% Tween 20.
(§2) Alternatively, one hundred microliters per well of 10 μg/ml of Histidine (His) tagged desired target antigen (R&D Systems, Minneapolis, Minn.) was added to ELISA plates coated with monoclonal mouse anti-polyHistidine antibody as described above and incubated for 1 hour at room temperature. Wells were washed four times with PBS containing 0.02% Tween 20.
(§3) Plates were washed 4 times with PBS containing 0.02% Tween 20.

VEGF 1-165 aa [3] = target: T2, VEGF 1-165 aa; assay: direct bind ELISA (N-term VD);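 also: ELISA screen of antibodies for binding to plate-immobilized target antigen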
Description: as §1, §2, §3

HGF-His tag [4] = target: T1, HGF-His tag; assay: direct bind ELISA (C-term VD)
Description: as §1, §2, §3

Row | Binder | EC50 (HGF-His tag [1]) | EC50 (VEGF 1-165 aa [2]) | EC50 (VEGF 1-165 aa [3]) | EC50 (HGF-His tag [4])
1 | B1 | 0.7 nM | 566 nM | – | –
2 | B2 | 0.4 nM | 65.3 nM | – | –
3 | B3 | – | – | 12.6 nM | 5.17 nM
4 | B4 | – | – | 64.2 nM | 37.2 nM
5 | B5 | 0.26 nM | – | – | –
6 | B6 | 0.11 nM | 341 nM | – | –
7 | B7 | 0.15 nM | 186 nM | – | –
8 | B8 | – | – | 53.1 nM | 6.55 nM
9 | B9 | – | – | 2.43 nM | 17.8 nM
10 | B10 | 0.29 nM | 1660 nM | – | –
11 | B11 | 0.17 nM | – | – | –
12 | B12 | 0.31 nM | 358 nM | – | –
13 | B13 | 0.33 nM | 51.3 nM | – | –
14 | B14 | 0.26 nM | 175 nM | – | –
15 | B15 | 0.19 nM | 92.9 nM | – | –
